{"source": "paper PMC5691641", "origin": "cited, not measured here", "target": "Bax (Homo sapiens) (UniProt Q07812)", "sequence (Q07812 whole entry)": "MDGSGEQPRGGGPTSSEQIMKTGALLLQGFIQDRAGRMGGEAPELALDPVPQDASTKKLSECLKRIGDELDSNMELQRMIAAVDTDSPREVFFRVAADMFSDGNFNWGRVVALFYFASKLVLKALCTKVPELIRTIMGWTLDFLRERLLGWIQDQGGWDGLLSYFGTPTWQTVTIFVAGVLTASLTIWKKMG"}
{"substance": "vMIA (from UniProt P16778)", "values": [{"measurement": "Kd", "result": 22, "unit": "nM"}]}
